{
  "source": "paper PMC10996581",
  "about": "(The Journal of Cell Biology, 2024)",
  "binders": {"B1": {"name": "CTxA_(I124-F132) peptide, 5-FAM labelled, wild-type sequence (peptide)", "peptide": "IYGWYRVHF", "modifications": "also: 5-FAM labelled, position not given here"}},
  "experiment_in_all_cases": "[…]",
  "key": {"His6-IRE1αLD [1]": {"target": "T1, His6-IRE1αLD (human, UniProt O75460 24-443)", "T1 sequence": "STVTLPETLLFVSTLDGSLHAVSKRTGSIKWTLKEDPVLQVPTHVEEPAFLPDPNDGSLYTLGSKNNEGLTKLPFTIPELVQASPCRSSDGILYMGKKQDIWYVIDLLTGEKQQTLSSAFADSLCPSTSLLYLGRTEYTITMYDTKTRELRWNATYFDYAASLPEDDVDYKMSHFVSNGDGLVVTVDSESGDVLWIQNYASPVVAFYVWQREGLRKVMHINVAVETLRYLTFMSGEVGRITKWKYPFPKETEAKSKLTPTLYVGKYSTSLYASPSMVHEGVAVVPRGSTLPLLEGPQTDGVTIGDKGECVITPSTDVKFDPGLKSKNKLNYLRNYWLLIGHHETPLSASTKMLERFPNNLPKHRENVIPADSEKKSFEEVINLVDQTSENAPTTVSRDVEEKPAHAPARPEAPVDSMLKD"}, "[2]": {"target": "B1"}, "His6-IRE1αLD [3]": {"target": "T1, His6-IRE1αLD", "remark": "listed apart in the source"}},
  "note": "Where two headings read alike, the source gives them in different places. Where no end group is shown, it is not given here. The star is where a group is joined. 5FAM = O=C1OC2(c3ccc(O)cc3Oc3cc(O)ccc32)c2ccc(C(=O)*)cc21",
  "data": [
    {"binder": "5FAM-YLAWYQQKP", "note": "[human IgG light chain variable domain (VL) peptide, 5-FAM labelled]", "values": [
      {"measurement": "Kd", "setting": "His6-IRE1αLD [1]", "result": 219, "unit": "mM"}
    ]},
    {"binder": "YWLLIGHHETPL", "note": "[unlabeled IRE1α_(Y358-L369) peptide, wild-type sequence]", "values": [
      {"measurement": "fold weaker affinity than either peptide alone binding to IRE1αLD", "setting": "[2]", "result": "≥ 10", "unit": "fold"},
      {"measurement": "binding result", "setting": "His6-IRE1αLD [3]", "result": "binds"}
    ]},
    {"binder": "5FAM-YWLLIGHHETPL", "note": "[IRE1α_(Y358-L369) peptide, 5-FAM labelled, wild-type sequence]", "values": [
      {"measurement": "Kd", "setting": "His6-IRE1αLD [1]", "result": 0.24, "unit": "mM"}
    ]},
    {"binder": "B1", "values": [
      {"measurement": "binding result", "setting": "His6-IRE1αLD [1]", "result": "binds"}
    ]}
  ]
}
